Reference: patent US20240092930A1 (MABWELL SHANGHAI BIOSCIENCE, published 2024)

T1: human Trop-2 on the surface of cells (CHO/Trop-2 cells; BxPC-3 cells; NCI-N87 cells) (human, UniProt P09758 27-323)
T1 construct: whole, on cells; One molecule for all cell lines; the cell line is named under assay or readout; also called Trop-2 on the surface of CHO cells; recombinant human Trop-2 protein on the surface of CHO cells
T1 sequence (looked up): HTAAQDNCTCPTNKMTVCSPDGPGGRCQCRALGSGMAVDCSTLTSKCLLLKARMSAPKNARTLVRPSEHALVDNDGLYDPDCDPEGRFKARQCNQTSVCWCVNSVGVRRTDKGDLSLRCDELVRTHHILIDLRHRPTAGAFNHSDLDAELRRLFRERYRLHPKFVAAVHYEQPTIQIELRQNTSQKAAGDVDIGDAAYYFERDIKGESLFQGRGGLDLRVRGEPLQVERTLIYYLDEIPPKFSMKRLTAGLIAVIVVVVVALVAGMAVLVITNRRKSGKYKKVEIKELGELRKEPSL

T2: recombinant mouse Trop-2-his protein (Cat.: 50922-M08H, Beijing Yiqiao Shenzhou Science and Technology Co., … (mouse, UniProt Q8BGV3 25-270))
T2 construct: Bought protein; not shown: his tag
T2 sequence (looked up): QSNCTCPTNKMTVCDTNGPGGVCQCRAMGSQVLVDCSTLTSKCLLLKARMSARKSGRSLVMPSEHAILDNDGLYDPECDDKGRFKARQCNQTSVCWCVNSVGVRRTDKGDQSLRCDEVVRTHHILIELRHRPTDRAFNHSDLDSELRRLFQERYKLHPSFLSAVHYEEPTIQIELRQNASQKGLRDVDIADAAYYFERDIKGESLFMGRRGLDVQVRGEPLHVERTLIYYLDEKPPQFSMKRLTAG

T3: recombinant human Trop-2-his protein (ACCESSION NO.: NP_002344.2, AA 1-274) (human, UniProt P09758 27-274)
T3 construct: range 27-274; also called recombinant human Trop-2 protein; recombinant human Trop-2 extracellular domain; not shown: his tag
T3 sequence (looked up): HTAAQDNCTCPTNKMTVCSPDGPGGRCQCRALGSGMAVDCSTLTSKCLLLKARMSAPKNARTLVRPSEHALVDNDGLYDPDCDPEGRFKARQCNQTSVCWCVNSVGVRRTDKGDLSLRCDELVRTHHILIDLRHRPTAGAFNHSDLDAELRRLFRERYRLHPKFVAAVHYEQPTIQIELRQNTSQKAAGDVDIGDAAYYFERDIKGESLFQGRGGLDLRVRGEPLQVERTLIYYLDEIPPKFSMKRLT

B1: Sacituzumab (antibody, human IgG1, kappa, V domains shown)
VH: QVQLQQSGSELKKPGASVKVSCKASGYTFTNYGMNWVKQAPGQGLKWMGWINTYTGEPTYTDDFKGRFAFSLDTSVSTAYLQISSLKADDTAVYFCARGGFGSSYWYFDVWGQGSLVTVSS
VL: DIQLTQSPSSLSASVGDRVSITCKASQDVSIAVAWYQQKPGKAPKLLIYSASYRYTGVPDRFSGSGSGTDFTLTISSLQPEDFAVYYCQQHYITPLTFGAGTKVEIKR
notes: expressed in HEK293; also called control antibody Sacituzumab; Saituzumab
B2: h23-12-25 (antibody, human IgG1, kappa, V domains shown)
VH: QVQLVQSGAEVKKPGASVKVSCKASGYTFTSYWMHWVRQAPGQGLEWMGEITPSDNYGSYNQKFKGRVTITRDTSTSTAYMELSSLRSEDTAVYYCARGHGNYVSFDYWGQGTLVTVSS
VL: DIQMTQSPSSLSASVGDRVTITCRASQDISNYLNWYQQKPGKAPKLLIYYTSRLESGVPSRFSGSGSGTDFTLTISSLQPEDFATYFCQQGYTLPPYTFGQGTKLEIKR
notes: also called h32-12

How the values were obtained:
[1] = target: T1, human Trop-2 on the surface of cells …; experiment: FACS, CHO/Trop-2 cells
Description: Suspensions of CHO cells recombinantly expressing human Trop-2 (CHO/Trop-2 cells) were incubated with chimeric antibodies ch3-11, ch4-3, ch17-1, ch11-4, and ch23-12 (dilutions at concentrations of 30 μg/ml and 10 μg/ml, and serial dilutions of 9 concentrations obtained through 3-fold serially diluting a solution with an initial concentration of 5 μg/ml, 11 concentrations in total) for 30 min at 37° C. Controls as follows were set: (1) Positive Control (PC): control antibody Sacituzumab; (2) Negative Control (NC): IgG1 isotype control antibody NC-IgG1. The cells were washed 3 times with PBS, and 1:100 dilution of goat anti-human IgG-FITC (Cat.: F9512, Sigma) was added into the cell which then were incubated for 30 min. Then the cells were washed 3 times with PBS again, and the Mean Fluorescence Intensity (MFI) of the cells was measured by a flow cytometer (model B49007AD, SNAW31211, BECKMAN COULTER) to detect binding ability of the chimeric antibodies to human Trop-2 on the surface of CHO cells.

[2] = target: T1, human Trop-2 on the surface of cells …; experiment: cell-based or functional assay
[3] = target: T1, human Trop-2 on the surface of cells …; experiment: cell-based or functional assay; remark: listed apart in the source
[4] = target: T1, human Trop-2 on the surface of cells …; experiment: cell-based or functional assay; remark: listed apart in the source
[5] = target: T2, recombinant mouse Trop-2-his protein …; experiment: ELISA, coated mouse Trop-2-his 1 µg/ml
Description: (§1) Washed with PBS 3 times, the plates were blocked with the added 5% BSA PBS at 37° C. for 60 min, and then washed 3 times with PBST. Different concentrations of h23-12 (serial dilutions of 14 concentrations obtained through 3-fold serially diluting a solution with an initial concentration of 10 μg/ml), h4-3 (serial dilutions of 12 concentrations obtained through 3-fold serially diluting a solution with an initial concentration of 3 μg/ml), and Sacituzumab (serial dilutions of 12 concentrations obtained through 3-fold serially diluting a solution with an initial concentration of 3 μg/ml) were added into the plates, with each concentration provided in a parallel well. The plates were incubated at 37° C. for 60 min, and then were washed 4 times with PBST. 1:5000 dilution of H1RP-anti-human Fc (Cat.: 109-035-098, Jackson ImmunoResearch) was added into the plates for incubation at 37° C. for 30 min. Afterwards, the plates were washed with PBST 4 times, and TMB substrate was added for color development at 37° C. for 10 min. Then 2M HCl was added to stop reaction; and absorbances at 450 nm and at 630 nm (as reference wavelength) were read, and A450 nm-630 nm values of the wells in the plates were recorded.

[6] = target: T3, recombinant human Trop-2-his protein …; experiment: ELISA, coated human Trop-2-his 1 µg/ml
Description: as §1

Row | Binder | EC50 [1] [nM] | Internalization percentage (%), 1 h, BxPC-3 cells, FACS [2] [%] | Internalization percentage (%), 3 h, BxPC-3 cells, FACS [2] [%] | Internalization percentage (%), 5 h, BxPC-3 cells, FACS [2] [%] | Internalization percentage, 1 h, NCI-N87 cells, FACS [3] [%] | Internalization percentage, 1 h, BXPC-3 cells, FACS [4] [%] | binding result [5] | EC50 [6] [nM]
1 | B1 | 2.32 | 17.2 | 21.8 | 20.4 | 49.3 | 37.4 | no binding (tested: up to 3 µg/ml) | 0.0703
2 | B2 |  |  |  |  | 54 | 32.4 | no binding (tested: up to 10 µg/ml) | 0.0473
